Assays:
[1] = biological target: T1, human Notch1 expressed on the surface of CHO cells (human, UniProt P46531 19-2555); assay: electrochemiluminescence (Meso Scale Discovery) on transfected CHO cells
T1 construct: whole, on cells
Protocol: (§1) To determine specificity of binding to cell surface Notch proteins, antibody 4F11 was tested for binding to human Notch1, human Notch2, human Notch3 and human Notch4 expressed on the surface of CHO cells using electrochemiluminescence (Meso Scale Discovery). A CHO line lacking any human Notch protein was also produced for use as a negative control. Cells were grown under standard conditions (37° C., F12+10% FBS). For binding studies, cells were washed in PBS containing calcium and magnesium, and removed from the plate by treatment with Cell Dissociation Buffer (Life Technologies) for ten minutes at 37° C.
(§2) Cells were seeded at a density of 30,000 cells per well, in hybridoma media, instandard 96-well binding plates (Meso Scale Discovery, Cat. No. L15XA-6). Cells were incubated for one hour at 37° C. Antibodies or control IgG were added at 5 μg/ml, in 50 μl hybridoma media, and incubated for one hour at 37° C. The plates were washed twice with PBS containing 3% BSA. Binding of the antibodies to cell surface was detected using 2 μg/ml of MSD anti-mouse IgG secondary antibody (Meso Scale Discovery, Cat. No. R32AC-1) for one hour at 4° C. Plates were washed twice with PBS containing 3% BSA, and 150 μl of read buffer (Meso Scale Discovery Cat. No. R92TC-1) was added. The plates were analyzed on a Sector Imager 2400 instrument (Meso Scale Discovery).

[2] = biological target: T2, human Notch2 expressed on the surface of CHO cells (human, UniProt Q04721 26-2471); assay: as above
T2 construct: whole, on cells
Protocol: as §1, §2

[3] = biological target: T3, human Notch4 expressed on the surface of CHO cells (human, UniProt Q99466 24-2003); assay: as above
T3 construct: whole, on cells
T3 sequence (Q99466 24-2003): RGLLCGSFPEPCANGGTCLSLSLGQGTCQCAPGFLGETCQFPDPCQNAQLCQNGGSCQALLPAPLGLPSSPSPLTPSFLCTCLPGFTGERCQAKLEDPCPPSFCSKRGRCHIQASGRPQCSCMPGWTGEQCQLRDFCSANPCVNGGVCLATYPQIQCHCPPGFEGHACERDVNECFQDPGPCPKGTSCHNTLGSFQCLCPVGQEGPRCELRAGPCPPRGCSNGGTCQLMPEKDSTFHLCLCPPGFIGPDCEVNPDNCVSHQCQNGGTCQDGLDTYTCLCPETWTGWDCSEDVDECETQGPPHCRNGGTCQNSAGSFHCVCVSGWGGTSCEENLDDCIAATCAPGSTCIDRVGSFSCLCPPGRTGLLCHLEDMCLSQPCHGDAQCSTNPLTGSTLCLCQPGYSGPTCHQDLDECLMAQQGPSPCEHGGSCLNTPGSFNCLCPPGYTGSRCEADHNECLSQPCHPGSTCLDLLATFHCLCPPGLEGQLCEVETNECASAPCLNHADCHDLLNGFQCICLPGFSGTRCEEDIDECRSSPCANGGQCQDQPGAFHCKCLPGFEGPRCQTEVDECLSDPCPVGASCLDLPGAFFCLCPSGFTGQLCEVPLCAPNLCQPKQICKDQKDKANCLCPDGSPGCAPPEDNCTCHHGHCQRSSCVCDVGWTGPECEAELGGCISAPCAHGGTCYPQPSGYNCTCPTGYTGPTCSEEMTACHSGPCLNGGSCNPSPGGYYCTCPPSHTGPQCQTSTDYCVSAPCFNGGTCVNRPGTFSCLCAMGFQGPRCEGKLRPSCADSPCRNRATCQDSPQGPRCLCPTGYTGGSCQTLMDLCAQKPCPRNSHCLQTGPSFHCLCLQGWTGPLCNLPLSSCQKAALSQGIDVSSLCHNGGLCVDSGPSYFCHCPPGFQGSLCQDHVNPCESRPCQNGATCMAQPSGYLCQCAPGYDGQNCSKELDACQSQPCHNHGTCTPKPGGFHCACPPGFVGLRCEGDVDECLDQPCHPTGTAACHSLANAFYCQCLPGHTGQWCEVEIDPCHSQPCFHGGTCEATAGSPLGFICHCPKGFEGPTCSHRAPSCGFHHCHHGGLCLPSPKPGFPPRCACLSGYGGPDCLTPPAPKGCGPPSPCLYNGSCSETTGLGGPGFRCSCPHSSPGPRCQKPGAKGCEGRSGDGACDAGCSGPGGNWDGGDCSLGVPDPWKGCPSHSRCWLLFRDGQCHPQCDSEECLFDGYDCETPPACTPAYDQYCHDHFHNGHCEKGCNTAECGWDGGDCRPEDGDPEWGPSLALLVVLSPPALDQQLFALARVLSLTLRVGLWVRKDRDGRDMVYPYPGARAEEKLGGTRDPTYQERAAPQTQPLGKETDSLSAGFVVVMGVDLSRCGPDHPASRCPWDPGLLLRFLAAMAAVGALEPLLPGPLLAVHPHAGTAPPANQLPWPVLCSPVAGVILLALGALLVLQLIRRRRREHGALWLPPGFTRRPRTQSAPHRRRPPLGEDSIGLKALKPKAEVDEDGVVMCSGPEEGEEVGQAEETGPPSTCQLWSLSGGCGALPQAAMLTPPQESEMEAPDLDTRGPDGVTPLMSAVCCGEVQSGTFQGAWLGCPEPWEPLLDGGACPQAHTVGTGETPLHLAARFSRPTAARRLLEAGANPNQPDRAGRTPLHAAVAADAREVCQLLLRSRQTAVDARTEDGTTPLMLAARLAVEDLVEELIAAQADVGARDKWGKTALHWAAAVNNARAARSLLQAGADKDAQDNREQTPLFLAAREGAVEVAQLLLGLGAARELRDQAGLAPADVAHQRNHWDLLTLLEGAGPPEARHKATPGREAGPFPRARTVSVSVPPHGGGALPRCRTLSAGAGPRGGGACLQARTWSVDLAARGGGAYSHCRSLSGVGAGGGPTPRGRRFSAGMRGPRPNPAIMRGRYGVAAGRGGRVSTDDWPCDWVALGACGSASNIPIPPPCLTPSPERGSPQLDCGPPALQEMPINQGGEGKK
Protocol: as §1, §2

[4] = biological target: T4, recombinant human Notch3 extracellular domain (containing EGF like domains 1-11) Fc fusion protein (human, UniProt Q9UM47 40-467); assay: SPR Biacore T100, 4F11 captured by anti-mouse IgG, rhNotch3-Fc analyte, 25 C
T4 construct: domain: EGF like domains 1-11; also called rhNotch3-Fc; rhNotch3
T4 sequence (looked up): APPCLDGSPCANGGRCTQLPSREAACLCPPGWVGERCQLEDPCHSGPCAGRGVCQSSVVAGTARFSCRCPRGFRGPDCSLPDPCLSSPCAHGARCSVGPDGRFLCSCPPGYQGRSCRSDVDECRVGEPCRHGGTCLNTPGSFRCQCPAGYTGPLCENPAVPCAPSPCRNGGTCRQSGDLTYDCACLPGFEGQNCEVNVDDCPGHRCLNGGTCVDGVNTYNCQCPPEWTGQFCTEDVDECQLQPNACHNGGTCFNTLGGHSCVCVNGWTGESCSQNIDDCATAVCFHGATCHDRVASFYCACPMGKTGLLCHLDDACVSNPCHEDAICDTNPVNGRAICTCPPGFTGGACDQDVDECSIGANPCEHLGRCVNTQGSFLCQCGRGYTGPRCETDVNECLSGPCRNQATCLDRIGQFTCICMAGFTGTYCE
Protocol: The binding affinity and kinetics of binding of antibody 4F11 to recombinant human Notch3 extracellular domain (containing EGF like domains 1-11) Fc fusion protein (rhNotch3-Fc (R&D Systems, Inc., Minneapolis, Minn.)) were measured by surface plasmon resonance using a Biacore® T100 instrument (GE Healthcare, Piscataway, N.J.).
Rabbit anti-mouse IgGs (GE Healthcare) were immobilized on carboxymethylated dextran CM4 sensor chips (GE Healthcare) by amine coupling, according to a standard protocol. Analyses were performed at 25° C. and 37° C. using PBS containing 0.05% surfactant P20 as running buffer. The antibody was captured in individual flow cells at a flow rate of 10 μl/minute. Injection time was varied for each antibody to yield an Rmax between 30 and 60 resonance units (RU). Buffer or rhNotch3-Fc diluted in running buffer was injected sequentially over a reference surface (no antibody captured) and the active surface (antibody to be tested) for 240 seconds at 60 μl/minute. The dissociation phase was monitored for up to 1500 seconds. The surface was then regenerated with two 60-second injections of 10 mM Glycine-HCl, pH 2.25, at a flow rate of 30 μl/minute. The rhNotch3-Fc concentration range tested was 100 nM to 3.125 nM (2 fold dilution).
Kinetic parameters were determined using the kinetic function of the BIAevaluation software (GE Healthcare) with double reference subtraction. Kinetic parameters for the antibody, kₐ (association rate constant), kd (dissociation rate constant) and KD (equilibrium dissociation constant) were determined.

[5] = biological target: T5, rhNotch2-Fc (human, UniProt Q04721 26-530); assay: BLI (Octet QK): rhNotch2-Fc loaded on anti-human-Fc sensors, then antibody 4F11 in solution
T5 construct: also called human Notch2 protein; R&D Cat. No. 3735-NT-050
T5 sequence (looked up): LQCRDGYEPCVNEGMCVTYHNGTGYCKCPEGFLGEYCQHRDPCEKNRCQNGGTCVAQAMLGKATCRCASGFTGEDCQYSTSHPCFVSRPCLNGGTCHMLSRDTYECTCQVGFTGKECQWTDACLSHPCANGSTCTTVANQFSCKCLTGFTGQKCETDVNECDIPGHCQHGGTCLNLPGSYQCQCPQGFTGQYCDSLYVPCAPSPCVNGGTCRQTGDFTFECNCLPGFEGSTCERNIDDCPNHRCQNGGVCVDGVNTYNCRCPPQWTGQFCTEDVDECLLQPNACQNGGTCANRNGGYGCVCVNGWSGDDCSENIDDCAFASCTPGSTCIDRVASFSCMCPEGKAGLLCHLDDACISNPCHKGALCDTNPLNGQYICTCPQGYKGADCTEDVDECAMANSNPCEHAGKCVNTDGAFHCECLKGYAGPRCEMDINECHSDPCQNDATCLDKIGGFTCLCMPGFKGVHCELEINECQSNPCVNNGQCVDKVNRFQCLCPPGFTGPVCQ
Protocol: Antibody 4F11 was tested for binding to human Notch1, human Notch2, or human Notch3 proteins. Binding measurements were made by biolayer interferometry (BLI), using a FortéBio Octet® QK instrument (FortéBio, Menlo Park, Calif.). Anti-human-Fc sensors were soaked in PBS containing 1 mg/ml BSA for five minutes prior to binding of antibodies. Then the following proteins (400 nM, in PBS containing 1 mg/ml BSA) were allowed to bind to the sensors: rhNotch1-Fc (R&D Systems, Minneapolis, Minn.; Cat. No. 3647-TK-050), rhNotch2-Fc (R&D Cat. No. 3735-NT-050), rhNotch3-Fc (R&D Cat. No. 1559-NT-050), or rmNotch3-Fc (R&D Cat. No. 1308-NT-050). Notch protein bound sensors were immersed in antibody solution (50 μg/ml) to allow binding of antibody to the Notch protein. Binding was detected by shifts in the interference pattern.

T1 sequence (P46531 19-2555): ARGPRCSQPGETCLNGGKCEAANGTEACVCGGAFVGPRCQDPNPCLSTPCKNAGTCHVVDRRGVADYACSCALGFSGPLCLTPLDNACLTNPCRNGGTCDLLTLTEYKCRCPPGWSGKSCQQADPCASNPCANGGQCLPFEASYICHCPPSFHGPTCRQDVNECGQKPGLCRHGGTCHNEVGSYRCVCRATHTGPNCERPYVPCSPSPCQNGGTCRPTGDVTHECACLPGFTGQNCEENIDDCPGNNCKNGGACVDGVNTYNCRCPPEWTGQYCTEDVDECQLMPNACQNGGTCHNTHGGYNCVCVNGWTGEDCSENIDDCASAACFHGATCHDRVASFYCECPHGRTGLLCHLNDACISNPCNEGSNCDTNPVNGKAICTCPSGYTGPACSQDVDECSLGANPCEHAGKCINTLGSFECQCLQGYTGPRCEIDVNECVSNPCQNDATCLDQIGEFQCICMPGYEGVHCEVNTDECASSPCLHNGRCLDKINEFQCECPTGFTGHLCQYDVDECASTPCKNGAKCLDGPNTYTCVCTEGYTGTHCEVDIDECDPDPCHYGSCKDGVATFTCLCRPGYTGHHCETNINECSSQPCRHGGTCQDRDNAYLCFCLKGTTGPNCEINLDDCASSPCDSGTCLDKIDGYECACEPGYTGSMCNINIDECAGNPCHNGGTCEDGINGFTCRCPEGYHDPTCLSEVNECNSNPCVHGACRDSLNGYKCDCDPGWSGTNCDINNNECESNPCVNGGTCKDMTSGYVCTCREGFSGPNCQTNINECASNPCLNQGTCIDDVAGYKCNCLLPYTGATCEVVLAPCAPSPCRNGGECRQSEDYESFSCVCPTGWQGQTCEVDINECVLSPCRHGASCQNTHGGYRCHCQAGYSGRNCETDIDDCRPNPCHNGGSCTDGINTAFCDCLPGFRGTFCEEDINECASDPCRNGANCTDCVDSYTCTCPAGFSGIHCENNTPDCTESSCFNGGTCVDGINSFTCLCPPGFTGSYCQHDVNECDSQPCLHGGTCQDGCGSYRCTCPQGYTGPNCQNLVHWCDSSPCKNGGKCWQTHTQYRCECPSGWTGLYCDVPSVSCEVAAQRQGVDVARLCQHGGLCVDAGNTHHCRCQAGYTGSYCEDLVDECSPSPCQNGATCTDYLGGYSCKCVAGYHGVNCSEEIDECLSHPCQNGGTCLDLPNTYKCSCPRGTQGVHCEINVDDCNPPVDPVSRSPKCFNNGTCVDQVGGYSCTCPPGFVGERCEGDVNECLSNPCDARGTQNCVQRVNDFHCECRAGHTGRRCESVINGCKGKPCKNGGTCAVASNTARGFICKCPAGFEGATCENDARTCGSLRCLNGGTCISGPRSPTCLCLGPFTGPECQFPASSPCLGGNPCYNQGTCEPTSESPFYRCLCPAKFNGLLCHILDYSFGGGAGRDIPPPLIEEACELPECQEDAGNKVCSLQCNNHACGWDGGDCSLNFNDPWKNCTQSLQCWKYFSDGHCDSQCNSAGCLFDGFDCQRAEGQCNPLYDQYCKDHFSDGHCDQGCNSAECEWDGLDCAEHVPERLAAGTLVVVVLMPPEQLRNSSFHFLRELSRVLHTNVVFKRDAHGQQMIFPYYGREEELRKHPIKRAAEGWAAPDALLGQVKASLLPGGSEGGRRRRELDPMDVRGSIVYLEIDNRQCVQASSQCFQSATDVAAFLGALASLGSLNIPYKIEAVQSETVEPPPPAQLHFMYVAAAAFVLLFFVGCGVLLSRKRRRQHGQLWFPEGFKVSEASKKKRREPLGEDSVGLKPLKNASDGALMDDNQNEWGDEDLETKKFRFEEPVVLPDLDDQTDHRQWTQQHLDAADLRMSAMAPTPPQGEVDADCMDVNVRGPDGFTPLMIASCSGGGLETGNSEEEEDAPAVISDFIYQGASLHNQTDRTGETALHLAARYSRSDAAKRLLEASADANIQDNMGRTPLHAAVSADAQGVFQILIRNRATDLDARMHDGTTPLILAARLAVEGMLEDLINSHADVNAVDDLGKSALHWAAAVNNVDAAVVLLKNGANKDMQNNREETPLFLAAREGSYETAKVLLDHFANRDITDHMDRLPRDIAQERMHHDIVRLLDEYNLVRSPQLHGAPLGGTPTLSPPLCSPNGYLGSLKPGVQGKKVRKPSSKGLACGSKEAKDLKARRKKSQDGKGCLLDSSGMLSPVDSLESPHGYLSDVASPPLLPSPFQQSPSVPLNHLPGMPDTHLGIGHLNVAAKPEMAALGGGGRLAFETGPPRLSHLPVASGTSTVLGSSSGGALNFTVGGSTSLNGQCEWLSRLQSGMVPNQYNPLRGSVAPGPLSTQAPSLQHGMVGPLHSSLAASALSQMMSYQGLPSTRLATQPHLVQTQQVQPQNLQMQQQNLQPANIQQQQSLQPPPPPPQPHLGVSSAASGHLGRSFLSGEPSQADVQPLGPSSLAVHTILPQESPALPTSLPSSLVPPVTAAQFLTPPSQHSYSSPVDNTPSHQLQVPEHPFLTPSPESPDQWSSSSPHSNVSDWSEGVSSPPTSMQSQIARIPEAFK

binding result [1]: no binding (tested: 5 µg/ml)
binding result [2]: no binding (tested: 5 µg/ml)
binding result [3]: no binding (tested: 5 µg/ml)
Kd [4]: 0.823 nM
koff [4]: 4.8e-05 s⁻¹
kon [4]: 70000 M⁻¹ s⁻¹
binding result [5]: no binding
B1: antibody 4F11 (murine monoclonal anti-human Notch3) (antibody, mouse IgG1, kappa, V domains shown)
VH: EVQLVESGGGLVKPGGSLKLSCAASGFAFSSYDMSWVRQTPEKRLEWVAYISRGGGSTYYPDTVKGRFTISRDNAKNTLYLQMSSLKSEDTAMYYCGRHATTAYWYFDVWGAGTTVTVSS
VL: DVVMTQTPLSLPVSLGDQASISCRSSQSLVHTNGNTYLHWYLQKPGQSPKLLIYKVSNRFSGVPDRFSGSGSGTDFTLKISRVEAEDLGVYFCSQSTHVPWTFGGGTKLEIKR
notes: Mouse IgG1 kappa purified from hybridoma; also called mu4F11; murine 4F11
